Results published in article PMC10017804.

Molecular target: photosystem II (PSII) complex of Porphyridium purpureum (P. purpureum (endogenous in P. purpureum cells))
Assay: cryo-EM structure; in situ, single cryo-EM images (no tilt series) of FIB-milled P. purpureum cellular lamellae; particles localized by GisSPA, then 3D classification and local refinement

stoichiometry N: 4
Substance: photosystem II (PSII) complex of Porphyridium purpureum
